According to patent US20030054360:

What was measured:
Assay in all cases: filter
[1] = target: T1, human neutrophil elastase (hNE) (Homo sapiens) (UniProt P08246); conditions: 5-BrdU replaces T
T1 sequence: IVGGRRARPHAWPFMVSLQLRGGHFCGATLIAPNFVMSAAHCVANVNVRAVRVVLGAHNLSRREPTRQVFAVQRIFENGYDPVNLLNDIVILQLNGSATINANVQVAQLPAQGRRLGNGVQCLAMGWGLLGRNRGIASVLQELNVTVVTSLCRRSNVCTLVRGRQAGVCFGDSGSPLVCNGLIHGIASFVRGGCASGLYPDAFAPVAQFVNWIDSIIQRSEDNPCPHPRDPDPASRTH

[2] = target: alpha-thrombin (Homo sapiens) (UniProt P00734+P00734); conditions: 5-BrdU replaces T, apparent photocrosslink KD
[3] = target: IGFBP-3 (UniProt P17936); conditions: 5-BrdU replaces T; apparent photocrosslink KD; plateau 52%
Chain of IGFBP-3 (P17936 28-291): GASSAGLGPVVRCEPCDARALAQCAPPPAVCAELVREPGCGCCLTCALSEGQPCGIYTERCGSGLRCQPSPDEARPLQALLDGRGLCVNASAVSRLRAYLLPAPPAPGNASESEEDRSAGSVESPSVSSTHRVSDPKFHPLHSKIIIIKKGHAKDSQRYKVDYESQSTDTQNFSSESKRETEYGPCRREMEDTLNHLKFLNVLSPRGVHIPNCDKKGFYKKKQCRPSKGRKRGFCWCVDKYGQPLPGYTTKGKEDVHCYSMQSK

[4] = target: Factor H (UniProt P08603); conditions: 5-BrdU replaces T; apparent photocrosslink KD; plateau 65%; abstract prints Factor II
Chain of Factor H (P08603 19-1231): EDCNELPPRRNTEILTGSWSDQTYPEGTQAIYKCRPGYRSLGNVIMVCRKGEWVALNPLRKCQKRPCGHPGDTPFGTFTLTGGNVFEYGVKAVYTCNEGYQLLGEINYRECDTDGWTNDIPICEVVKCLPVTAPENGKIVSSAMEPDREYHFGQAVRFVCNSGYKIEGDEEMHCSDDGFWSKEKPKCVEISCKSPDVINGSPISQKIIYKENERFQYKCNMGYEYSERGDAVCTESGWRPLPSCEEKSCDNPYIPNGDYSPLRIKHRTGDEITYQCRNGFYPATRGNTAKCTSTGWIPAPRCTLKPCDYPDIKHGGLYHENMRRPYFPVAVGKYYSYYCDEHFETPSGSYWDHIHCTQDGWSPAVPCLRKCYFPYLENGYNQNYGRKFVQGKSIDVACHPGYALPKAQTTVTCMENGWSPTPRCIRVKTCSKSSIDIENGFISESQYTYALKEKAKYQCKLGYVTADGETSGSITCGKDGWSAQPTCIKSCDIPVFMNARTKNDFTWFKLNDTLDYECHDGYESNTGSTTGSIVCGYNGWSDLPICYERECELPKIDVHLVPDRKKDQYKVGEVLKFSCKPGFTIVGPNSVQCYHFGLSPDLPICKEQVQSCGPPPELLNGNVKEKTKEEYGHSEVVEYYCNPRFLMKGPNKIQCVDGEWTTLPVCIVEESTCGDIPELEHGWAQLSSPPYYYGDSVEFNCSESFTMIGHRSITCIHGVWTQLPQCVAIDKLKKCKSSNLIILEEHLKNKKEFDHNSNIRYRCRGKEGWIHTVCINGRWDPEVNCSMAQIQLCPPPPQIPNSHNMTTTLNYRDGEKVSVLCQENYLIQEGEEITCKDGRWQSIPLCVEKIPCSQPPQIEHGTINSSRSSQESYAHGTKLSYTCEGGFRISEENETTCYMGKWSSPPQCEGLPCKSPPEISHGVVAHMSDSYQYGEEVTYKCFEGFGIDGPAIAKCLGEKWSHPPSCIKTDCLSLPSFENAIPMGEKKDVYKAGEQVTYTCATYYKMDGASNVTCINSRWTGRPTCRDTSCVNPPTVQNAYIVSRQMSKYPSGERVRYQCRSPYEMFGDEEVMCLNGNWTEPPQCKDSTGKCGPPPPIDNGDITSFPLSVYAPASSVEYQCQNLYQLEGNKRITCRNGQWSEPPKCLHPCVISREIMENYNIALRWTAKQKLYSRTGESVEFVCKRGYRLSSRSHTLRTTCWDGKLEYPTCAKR

[5] = target: T2, Kininogen (UniProt P01042); conditions: 5-BrdU replaces T; apparent photocrosslink KD; plateau 64%
T2 sequence: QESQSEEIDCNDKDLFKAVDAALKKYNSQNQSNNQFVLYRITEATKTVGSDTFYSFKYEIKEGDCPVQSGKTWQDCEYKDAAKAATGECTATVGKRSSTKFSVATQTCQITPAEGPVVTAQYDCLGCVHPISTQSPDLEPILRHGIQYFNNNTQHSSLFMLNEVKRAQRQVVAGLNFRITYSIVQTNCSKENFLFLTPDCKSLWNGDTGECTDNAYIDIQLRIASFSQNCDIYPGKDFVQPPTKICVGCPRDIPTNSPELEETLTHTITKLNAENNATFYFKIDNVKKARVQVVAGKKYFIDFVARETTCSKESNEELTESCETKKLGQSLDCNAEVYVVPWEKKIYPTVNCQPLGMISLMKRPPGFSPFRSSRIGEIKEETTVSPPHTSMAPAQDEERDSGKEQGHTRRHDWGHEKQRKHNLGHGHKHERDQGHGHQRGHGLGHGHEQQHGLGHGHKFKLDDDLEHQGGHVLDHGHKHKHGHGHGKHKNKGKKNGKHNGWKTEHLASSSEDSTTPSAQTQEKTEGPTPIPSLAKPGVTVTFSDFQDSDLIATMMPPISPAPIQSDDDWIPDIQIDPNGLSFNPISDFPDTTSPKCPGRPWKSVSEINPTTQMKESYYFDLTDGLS

[6] = target: T3, Endostatin (UniProt P39060); conditions: 5-BrdU replaces T; apparent photocrosslink KD; plateau 75%
T3 sequence: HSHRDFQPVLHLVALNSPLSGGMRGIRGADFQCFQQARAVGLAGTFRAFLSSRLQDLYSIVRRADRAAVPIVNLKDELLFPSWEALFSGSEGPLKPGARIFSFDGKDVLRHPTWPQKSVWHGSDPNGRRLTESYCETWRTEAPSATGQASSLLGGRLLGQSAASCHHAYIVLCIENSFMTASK

[7] = target: Coagulation Factor IX (UniProt P00740); conditions: 5-BrdU replaces T; apparent photocrosslink KD; plateau 75%
[8] = target: T4, UDP-glucuronosyl transferase (UGT) 1A1 (UniProt P22309); conditions: 5-BrdU replaces T; apparent photocrosslink KD; plateau 70%
T4 sequence: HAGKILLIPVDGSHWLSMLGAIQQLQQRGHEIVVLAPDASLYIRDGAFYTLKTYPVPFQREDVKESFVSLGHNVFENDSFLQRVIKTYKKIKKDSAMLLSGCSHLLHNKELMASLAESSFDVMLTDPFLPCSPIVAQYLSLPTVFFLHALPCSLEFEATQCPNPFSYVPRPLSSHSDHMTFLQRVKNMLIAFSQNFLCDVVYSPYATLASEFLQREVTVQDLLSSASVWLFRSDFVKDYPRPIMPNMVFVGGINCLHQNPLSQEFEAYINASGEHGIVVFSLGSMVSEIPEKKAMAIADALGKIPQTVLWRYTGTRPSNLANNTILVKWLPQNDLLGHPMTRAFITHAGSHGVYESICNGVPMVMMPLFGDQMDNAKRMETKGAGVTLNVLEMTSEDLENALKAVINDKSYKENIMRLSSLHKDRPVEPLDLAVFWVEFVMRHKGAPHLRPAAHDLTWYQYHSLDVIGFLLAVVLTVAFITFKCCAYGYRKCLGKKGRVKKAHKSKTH

[9] = target: Serum Amyloid P (UniProt P02743); conditions: 5-BrdU replaces T; apparent photocrosslink KD; plateau 55%
Chain of Serum Amyloid P (P02743 20-223): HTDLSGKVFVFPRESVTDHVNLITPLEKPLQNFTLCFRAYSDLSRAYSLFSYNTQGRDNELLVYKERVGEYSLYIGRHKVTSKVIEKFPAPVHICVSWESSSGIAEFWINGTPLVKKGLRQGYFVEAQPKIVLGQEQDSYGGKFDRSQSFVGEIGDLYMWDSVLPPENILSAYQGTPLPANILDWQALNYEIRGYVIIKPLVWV

[10] = target: T5, L-Selectin (Homo sapiens) (UniProt P14151); conditions: 5-BrdU replaces T; apparent photocrosslink KD; plateau 25%
T5 sequence: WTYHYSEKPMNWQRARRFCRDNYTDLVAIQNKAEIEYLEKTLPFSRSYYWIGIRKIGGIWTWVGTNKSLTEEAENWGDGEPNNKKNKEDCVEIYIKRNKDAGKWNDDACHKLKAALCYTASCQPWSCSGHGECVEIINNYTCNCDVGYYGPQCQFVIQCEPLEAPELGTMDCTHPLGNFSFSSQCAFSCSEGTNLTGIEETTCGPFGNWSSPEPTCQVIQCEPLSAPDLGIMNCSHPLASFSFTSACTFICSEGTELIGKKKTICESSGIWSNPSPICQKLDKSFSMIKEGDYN

[11] = target: Hepatocyte Growth Factor (HGF) (UniProt P14210+P14210); conditions: 5-BrdU replaces T; apparent photocrosslink KD; plateau 73%
Chain of Hepatocyte Growth Factor (HGF) (P14210 32-494, chain 1 of 2): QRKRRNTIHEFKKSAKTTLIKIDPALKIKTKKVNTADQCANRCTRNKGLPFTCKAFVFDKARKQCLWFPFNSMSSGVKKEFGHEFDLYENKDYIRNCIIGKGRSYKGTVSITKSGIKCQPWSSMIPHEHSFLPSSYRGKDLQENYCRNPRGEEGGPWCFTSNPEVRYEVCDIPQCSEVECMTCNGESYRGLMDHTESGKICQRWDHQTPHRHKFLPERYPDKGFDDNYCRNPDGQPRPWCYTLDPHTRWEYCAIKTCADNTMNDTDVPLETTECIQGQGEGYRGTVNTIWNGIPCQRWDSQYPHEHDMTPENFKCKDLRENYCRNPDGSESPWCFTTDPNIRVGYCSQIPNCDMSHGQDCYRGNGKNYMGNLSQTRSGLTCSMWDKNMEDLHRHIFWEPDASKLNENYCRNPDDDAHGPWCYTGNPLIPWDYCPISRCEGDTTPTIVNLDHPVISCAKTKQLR
Chain of Hepatocyte Growth Factor (HGF) (P14210 495-728, chain 2 of 2): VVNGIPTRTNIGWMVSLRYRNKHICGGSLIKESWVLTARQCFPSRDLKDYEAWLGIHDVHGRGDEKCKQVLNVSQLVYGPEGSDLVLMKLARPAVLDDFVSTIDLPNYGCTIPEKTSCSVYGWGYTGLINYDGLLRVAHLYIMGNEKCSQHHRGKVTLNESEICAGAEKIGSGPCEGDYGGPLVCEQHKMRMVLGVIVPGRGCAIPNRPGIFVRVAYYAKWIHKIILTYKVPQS

[12] = target: Thrombopoietin (Tpo) (UniProt P40225); conditions: 5-BrdU replaces T; apparent photocrosslink KD; plateau 50%
Chain of Thrombopoietin (Tpo) (P40225 22-353): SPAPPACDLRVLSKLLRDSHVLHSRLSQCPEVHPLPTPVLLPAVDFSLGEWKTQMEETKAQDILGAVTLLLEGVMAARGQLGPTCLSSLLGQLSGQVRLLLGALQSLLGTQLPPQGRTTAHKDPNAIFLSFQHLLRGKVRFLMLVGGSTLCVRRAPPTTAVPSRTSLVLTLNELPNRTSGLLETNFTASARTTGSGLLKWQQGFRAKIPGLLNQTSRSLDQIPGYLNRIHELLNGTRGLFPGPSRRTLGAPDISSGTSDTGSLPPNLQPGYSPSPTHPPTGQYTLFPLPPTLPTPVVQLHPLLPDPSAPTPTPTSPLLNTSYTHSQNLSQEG

[13] = system: Collagen; conditions: 5-BrdU replaces T; apparent photocrosslink KD; plateau 25%
[14] = target: CTLA-4 Fc (UniProt P16410); conditions: 5-BrdU replaces T; apparent photocrosslink KD; plateau 7%
Chain of CTLA-4 Fc (P16410 36-161): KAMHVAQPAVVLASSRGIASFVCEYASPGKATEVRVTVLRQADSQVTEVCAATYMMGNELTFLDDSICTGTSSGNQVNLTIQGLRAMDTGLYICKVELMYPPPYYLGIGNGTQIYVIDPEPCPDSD

[15] = target: T6, Coagulation Factor XII (UniProt P00748); conditions: 5-BrdU replaces T; apparent photocrosslink KD; plateau 45%
T6 sequence: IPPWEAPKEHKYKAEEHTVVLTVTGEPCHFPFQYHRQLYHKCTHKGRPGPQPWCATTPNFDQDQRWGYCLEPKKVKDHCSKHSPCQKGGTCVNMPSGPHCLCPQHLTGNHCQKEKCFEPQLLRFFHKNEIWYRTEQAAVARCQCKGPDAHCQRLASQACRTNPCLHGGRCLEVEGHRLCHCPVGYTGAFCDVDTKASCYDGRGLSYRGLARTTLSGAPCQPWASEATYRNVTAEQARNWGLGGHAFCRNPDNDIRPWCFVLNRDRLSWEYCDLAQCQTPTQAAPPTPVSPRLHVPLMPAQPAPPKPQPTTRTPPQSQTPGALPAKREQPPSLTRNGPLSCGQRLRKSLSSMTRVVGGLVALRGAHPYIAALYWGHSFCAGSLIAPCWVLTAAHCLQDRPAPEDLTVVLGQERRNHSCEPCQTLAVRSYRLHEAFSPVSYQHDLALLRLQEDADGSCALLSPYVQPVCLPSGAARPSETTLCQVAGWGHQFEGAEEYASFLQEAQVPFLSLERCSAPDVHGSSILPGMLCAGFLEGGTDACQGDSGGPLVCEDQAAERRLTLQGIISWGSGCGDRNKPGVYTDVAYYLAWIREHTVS

[16] = target: T7, Interleukin-7 (UniProt P13232); conditions: 5-BrdU replaces T; apparent photocrosslink KD; plateau 50%
T7 sequence: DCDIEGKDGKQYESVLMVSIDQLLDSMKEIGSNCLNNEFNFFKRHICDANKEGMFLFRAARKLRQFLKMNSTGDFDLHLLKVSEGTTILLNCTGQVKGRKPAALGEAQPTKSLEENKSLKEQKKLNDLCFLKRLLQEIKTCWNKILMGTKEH

[17] = target: Plasmin (UniProt P00747+P00747); conditions: 5-BrdU replaces T; apparent photocrosslink KD; plateau 50%
Chain of Plasmin (P00747 97-580, chain 1 of 2): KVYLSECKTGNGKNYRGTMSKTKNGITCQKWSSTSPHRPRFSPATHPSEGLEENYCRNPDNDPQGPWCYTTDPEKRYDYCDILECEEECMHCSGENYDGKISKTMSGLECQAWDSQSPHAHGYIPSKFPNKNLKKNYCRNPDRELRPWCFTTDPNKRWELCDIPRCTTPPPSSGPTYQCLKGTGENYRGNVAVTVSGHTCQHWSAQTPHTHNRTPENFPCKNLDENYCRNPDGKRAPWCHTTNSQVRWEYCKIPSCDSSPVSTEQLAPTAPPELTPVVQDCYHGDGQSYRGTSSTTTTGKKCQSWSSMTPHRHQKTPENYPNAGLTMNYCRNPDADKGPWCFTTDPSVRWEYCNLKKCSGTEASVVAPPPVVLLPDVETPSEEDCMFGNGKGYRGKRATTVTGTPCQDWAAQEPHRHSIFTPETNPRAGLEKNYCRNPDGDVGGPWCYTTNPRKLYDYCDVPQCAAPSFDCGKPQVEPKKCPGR
Chain of Plasmin (P00747 581-810, chain 2 of 2): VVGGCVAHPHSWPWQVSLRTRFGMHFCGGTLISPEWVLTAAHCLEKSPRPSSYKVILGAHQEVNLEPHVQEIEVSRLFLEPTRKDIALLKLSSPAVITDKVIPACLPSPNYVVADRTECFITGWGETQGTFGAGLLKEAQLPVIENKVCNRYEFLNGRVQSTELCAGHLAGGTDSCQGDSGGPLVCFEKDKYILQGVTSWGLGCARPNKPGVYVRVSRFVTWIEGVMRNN

[18] = target: Transforming Growth Factor beta1 (TGF-beta1) (UniProt P01137); conditions: 5-BrdU replaces T, apparent photocrosslink KD, plateau 80%
Chain of Transforming Growth Factor beta1 (TGF-beta1) (P01137 279-390): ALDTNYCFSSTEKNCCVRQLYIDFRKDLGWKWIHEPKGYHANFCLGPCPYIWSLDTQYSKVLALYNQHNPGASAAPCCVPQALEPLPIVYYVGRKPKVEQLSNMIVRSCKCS

“ATATATATGGGAGGACGATGCGGGCCAATCTGTCTTCTTTCCATCCTTATGATCAGACGACGAGCGGGAAAAAAAA [hNE pool 2 clone 73]” showed a Kd ([1]; apparent photocrosslink KD, plateau 32%, rate 0.28) of 29 nM.
In the case of “ATATATATGGGAGGACGATGCGGGAGGAGCTGATGGGTGGTGAGGTTGGCCAGACGACGAGCGGGAAAAAAAA [Thrombin pool 5 clone 51]”, the Kd ([2]; plateau 6%, rate 0.4) is reported as 0.04 nM.
For “ATATATATGGGAGGACGATGCGGGCACATCACTCTATCATTTGCTACGGTACCGGAGTGAGTCCAGACGACGAGCGGGAAAAAAAA [hNE pool 2 clone 18]”, the Kd ([1]; apparent KD from photocrosslinking 308 nm, plateau 37%, rate 0.72 J-1 cm2) was 21 nM.
Work on “ATATATATGGGAGGACGATGCGGGCAAAGTGTTATTTCTTGATCTGTTTCACCCAGACGACGAGCGGGAAAAAAAA [IGFBP-3 pool 112 clone 65]” yielded a Kd [3] of 6 nM.
“ATATATATGGGAGGACGATGCGGCCTCATAAAGTTACATCGGCAATTCTTCTCCAGACGACGAGCGGGAAAAAAAA [Factor H pool 94 clone 12]” was tested, and the Kd [4] was 14 nM.
“ATATATATGGGAGGACGATGCGGGACGCTAGTACCCTGGCTGGCTTGGTTGGGCAGACGACGAGCGGGAAAAAAAA [Kininogen pool 046 clone 31]” showed a Kd [5] of 7 nM.
In the case of “ATATATATGGGAGGACGATGCGGCACAATGAAGTCACTCTTGACGCTTGTATTCAGACGACGAGCGGGAAAAAAAA [Endostatin pool 92 clone 4]”, the Kd [6] is reported as 2.7 nM.
In the case of “ATATATATGGGAGGACGATGCGGCAACCCACCACTCTATCTTTCCCATAACTGCAGACGACGAGCGGGAAAAAAAA [hNE pool 2 clone 43]”, the Kd ([1]; apparent photocrosslink KD, plateau 27%, rate 0.14) is reported as 61 nM.
Sequence “ATATATATGGGAGGACGATGCGGGCAGGACGGACAGCAAGGGGTGAGCACGAGCAGACGACGAGCGGGAAAAAAAA [Thrombin pool 5 clone 75]” has a Kd ([2]; plateau 62%) of 110 nM.
“ATATATATGGGAGGACGATGCGGGCGTCTGGGATTTGGACTTCTTCGCTAGCTCAGACGACGAGCGGGAAAAAAAA [Factor IX pool 87 clone 50]” showed a Kd [7] of 6.2 nM.
“ATATATATGGGAGGACGATGCGGCACCTGATTTCTACCCTTTACTTTGTGTGGCAGACGACGAGCGGGAAAAAAAA [UGT 1A1 pool 319 clone 73]” was tested, and the Kd [8] was 22 nM.
With “ATATATATGGGAGGACGATGCGGGCCGACTCTGAGGAAAAGGTTTTATGTATGGCTACCCCTGCAGACGACGAGCGGGAAAAAAAA [Serum Amyloid P pool 051 clone 50]” the Kd [9] was 0.54 nM.
“ATATATATGGGAGGACGATGCGGCCGGTTCACGTGCACCATCCGTGTGCTAGACAGACGACGAGCGGGAAAAAAAA [L-Selectin pool 048 clone 21]” was tested, and the Kd [10] was 7 nM.
For “ATATATATGGGAGGACGATGCGGGACGACTAGCCTAGTGCCCTTACGATCACCCAGACGACGAGCGGGAAAAAAAA [HGF pool 107 clone 23]”, the Kd [11] was 0.53 nM.
For “ATATATATGGGAGGACGATGCGGGCACACCCAACCTTGCTTCTTCAATCTAATCTCCACTTTGCAGACGACGAGCGGGAAAAAAAA [Tpo pool 059 clone 34]”, the Kd [12] was 64 nM.
In the case of “ATATATATGGGAGGACGATGCGGCTACTCCTCCTTAACCCGGGTCTTGTGGCCCAGACGACGAGCGGGAAAAAAAA [Collagen pool 100 clone 36]”, the Kd [13] is reported as 0.75 nM.
Sequence “ATATATATGGGAGGACGATGCGGGACGCTAATACTTCTGGAGTGGAACGGTTTCAGACGACGAGCGGGAAAAAAAA [CTLA-4 Fc pool 101 clone 60]” has a Kd [14] of 8 nM.
For “ATATATATGGGAGGACGATGCGGCTGCGTGACAGTTATACTGTTATTGGTCTTCAGACGACGAGCGGGAAAAAAAA [Factor XII pool 89 clone 51]”, the Kd [15] was 53 nM.
“ATATATATGGGAGGACGATGCGGGCAGTAGGTTGGGTAGGGTGGTCTGCTCAGACGACGAGCGGGAAAAAAAA [Thrombin pool 5 clone 4]” was tested, and the Kd ([2]; plateau 25%, rate 0.4) was 0.03 nM.
With “ATATATATGGGAGGACGATGCGGGCGGTTGGCGTGGTTGGAAATGTCCCGTCAGACGACGAGCGGGAAAAAAAA [Thrombin pool 5 clone 77]” the Kd ([2]; plateau 9%, rate 0.64, Table 7 sequence differs from listing (GGTTGCTGTGG vs ggttggcgtgg)) was 0.05 nM.
For “ATATATATGGGAGGACGATGCGGGCTGAAAGGAAACGGACGATTGAGCTTCCCCTTACCTCTCCAGACGACGAGCGGGAAAAAAAA [IL-7 pool 042 clone 5]”, the Kd [16] was 11 nM.
“ATATATATGGGAGGACGATGCGGCAACCCTGACACCACGTTGTTTCTCCTTTTGGGGTAACCGCAGACGACGAGCGGGAAAAAAAA [Plasmin pool 050 clone 25]” was tested, and the Kd [17] was 78 nM.
“ATATATATGGGAGGACGATGCGGGCACCTTTCTTACATCTTGGCTTCATTCTTGCACCATTGGCAGACGACGAGCGGGAAAAAAAA [TGF-beta1 pool 015 clone 83]” gave a Kd ([18]; rate 0.82) of 4.3 nM.
“ATATATATGGGAGGACGATGCGGGACCATCCAATACCTTCCGTAACACTTTCCTTCTTCCTTCCAGACGACGAGCGGGAAAAAAAA [TGF-beta1 pool 015 clone 81]” was tested, and the Kd ([18]; rate 0.58) was 7.2 nM.
